The data set is described as follows: yeast display, Sf9 membrane polyspecificity reagent, FACS + sequencing; frameworks hold sequencing errors. In outline: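 Polyreactivity labels are assigned by the sorting gate from which each nanobody was recovered. The gates were low and high (top ~1%), set on anti-HA fluorescence for expression and streptavidin fluorescence for reagent binding. Before sorting, galactose-induced (36–48 hours) yeast display cells were stained for 1 hour at 4 °C with 10% biotinylated, detergent-solubilized Sf9 membrane reagent.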
As for “QVQLVESGGGLVQAGGSLRLSCAASGGTFSYYAMGWYRQAPGKERELVAAISGNGDTTYYADSVKGRFTSSRDNAKNTVYLQMNSLKPEATAVYYCNVFVSAGEEDEYWGQGTQVTVSS”, the “polyreactivity (PSR sort gate)” value is given as “low polyreactivity”.

“QVQLVESGGGLVQAGGSLRLSCAASGGTFTAYAMGWYIQAPGKERELVAAISASGDSTYYADSVKGRFTISRDIAKNTVYLQMNSLKPEDTAVYYCNADWYRTGRRGSDYWGQGTQVTVSS”: the “polyreactivity (PSR sort gate)” value is “low polyreactivity”.

On to “QVQLVESGGGLVQAGGSLRLSCAASGGTFTRYTMGWYRQAHGKESELVAAISSSGGSTYYADSVKGRFTISRDNAKNTVYLQMNSLKPEDTAVYYCAAFKASSKQYPYDYWGQGTQVTVSS”, for which the “polyreactivity (PSR sort gate)” value is given as “high polyreactivity”.

Take “QVQLVESGGGLVQAGGSLRLSCAASGGTFTSYAMGWYRQAPGKERELVAAISWSGGSTYYADSVKGRFTISRDNAKNTVYLQMKSLKPEDTAVYYCAAVFYRYNAVRYDYWGQGTQVTVSS”: the “polyreactivity (PSR sort gate)” value is given as “high polyreactivity”.

In the case of “QVQLVESGGGLVQAGGSLRLSCAASGGTFTVNAMGLYRQAPGKERELVAAITWDGGTTYYADSVKGRFTISRDNAKNTVYLQMNSLKPEDSAVYYCAAEVDYSAFDYWGQGTQVTVSS”, the “polyreactivity (PSR sort gate)” value is given as “low polyreactivity”.

As for “QVQLVESGGGLVQAGGSLRLSCAASGGTFVFYAMGWYIQAPGKERELVAAISSAGRTYYADAVKGRFTISRDNAKTTVYLQMNSLKPEETAVYYCAAVSSQYDGRYYYWGQGTQVTVSS”, the “polyreactivity (PSR sort gate)” value was “high polyreactivity”.

On to “QVQLVESGGGLVQAGGSLRLSCAASGGTFVPNAMGWYRQAPGKERELVAAITWSGARTYYADSVKGRFTISRDNAKNTVYLQMNSLKPEDTAVYYCAAVYNYYIVYEYYYWGQGTQVTVSS”, for which the “polyreactivity (PSR sort gate)” value is “high polyreactivity”.

On to “QVQLVESGGGLVQAGGSLRLSCAASGGTFWIYAMGWYRKAPGKERELVAGITTSGATTYYADSVKGRFTISRDNAKNTVYLQMNSLKPEDTAVYYCAADEYYRYEYWGQGTQVTVSS”, for which the “polyreactivity (PSR sort gate)” value is recorded as “low polyreactivity”.

As to “QVQLVESGGGLVQAGGSLRLSCAASGGTFWYNAMGWYRQAPGKERELVANIRRSGDSTYYADSVKARFTISRDNAKNTVYLQMNSLKPEDTAVYYCAVSYTTYYHRYYYWGQGTQVTVSS”, the “polyreactivity (PSR sort gate)” value is reported as “high polyreactivity”.

Regarding “QVQLVESGGGLVQAGGSLRLSCAASGGTFYGNAMGWYRQAPGKERELVAGITDDSSTYYADSVKGRFTISRDNAKNTVYLQMNSLKPEDTAVYYCAKDLSWYYLPEVYYWGQGTQVTVSS”, the “polyreactivity (PSR sort gate)” value is given as “low polyreactivity”.

“QVQLVESGGGLVQAGGSLRLSCAASGGTFYGYAAMGWYRQAPGKERELVAAISRSGGRTYYADSVKGRFTISRDNAKNTVYLQMNSLKPEDTAVYYCAARRAYSRPPRDYWGQCTQVTVSS”: the “polyreactivity (PSR sort gate)” value is given as “high polyreactivity”.

For “QVQLVESGGGLVQAGGSLRLSCAASGGTFYRYAMGWYRQAPGKERELVAAITSGSSTYYADSVKGRFTISRDNAKNTVYLQMNSLKPEDTAVYYCAAARYSRLSRTRPGKYGYWGQGTQVTVSS”, the “polyreactivity (PSR sort gate)” value is recorded as “low polyreactivity”.

Take “QVQLVESGGGLVQAGGSLRLSCAASGGTFYVNAMGLYRQAPGKERELVAGIRESGASTYYADSVKGRFTISRDNAKNTVYFQMNSLQPEDTAVYYCAVDGPYPAASQSEVGYDYWGQGTQVTVSS”: the “polyreactivity (PSR sort gate)” value is “low polyreactivity”.

Consider “QVQLVESGGGLVQAGGSLRLSCAASGGTFYYYAMGWSRQAPGKERELVAAISWSGVSTSYADSVKGRFTISRDNANNTVYLQMNSLKPEDTAVYYCAAGPFYYTGYEGVYWGQGTQVTVSS”, for which the “polyreactivity (PSR sort gate)” value was “high polyreactivity”.

In the case of “QVQLVESGGGLVQAGGSLRLSCAASGGTFYYYAMGWYRQAPGKEREFVAAITWTGGRTYYADSVKGRFTISRDNAKNTVYLQMNSLKPEDTAVYYCAASDRYGGRDYWGQGTQVTVSS”, the “polyreactivity (PSR sort gate)” value is “high polyreactivity”.

As to “QVQLVESGGGLVQAGGSLRLSCAASGGTIDRYAMGWYRQAPGKERELVAAITKSGDRTYYADSVKGRFTISRDNAKNTVYLQMNSLKPEDTAVYYCAAAYSGLRRQNGFNYWGQGTQVTVSS”, the “polyreactivity (PSR sort gate)” value is reported as “high polyreactivity”.

With “QVQLVESGGGLVQAGGSLRLSCAASGGTIGYNAMGWYRQAPGKERELVAAISWSGGTTYYADSVKGRFTISRDNAKNTVYLQMNSLKPEDTAVYYCNVYSRGRDDWGQGTQVTVSS”, the “polyreactivity (PSR sort gate)” value is on record as “high polyreactivity”.

Consider “QVQLVESGGGLVQAGGSLRLSCAASGGTIVPNAMGWYRQAPGTERELVATLTSSDTTNYADSVKGRFTISRDNAKNTVYLQMNSLKPEDTAVYYSAASFKLGYWDYYYWGQGTQVTVSS”, for which the “polyreactivity (PSR sort gate)” value is reported as “low polyreactivity”.

For “QVQLVESGGGLVQAGGSLRLSCAASGGTIYGYAAMGWYRQAPGKERELVAAISRSGGRTYYADSVKGRFTISRDNAKNTVYLQMNSRKPEDTAVYYCAARRAYSRPPRDYWGQCTQVTVSS”, the “polyreactivity (PSR sort gate)” value is listed as “high polyreactivity”.

Consider “QVQLVESGGGLVQAGGSLRLSCAASGGTLDYNAMGWYRQAPGKERELVAGITSGGGTYYADSVKGRFTISRDNAKNTVYLQMNSVKPEDTAVYYCAARPWRSRYYGGLGRRFDYWGQGTQVTVSS”, for which the “polyreactivity (PSR sort gate)” value was “high polyreactivity”.

“QVQLVESGGGLVQAGGSLRLSCAASGGTLQGNAMGWYRQAPGKERELVAAISSRGGRTYYADSVKGRFTISRDNAKNTVYLQMNSLKPEDTAVYYCAAVQNGDSTLLRTKGGYWGQGTQVTVSS”: the “polyreactivity (PSR sort gate)” value is “high polyreactivity”.

With “QVQLVESGGGLVQAGGSLRLSCAASGGTLQGNAMGWYRQAPGKERELVAAISSRGGRTYYADSVKGRFTISRDNANNTVYLQMNSLKPEDTAVYYCAAVQKGDSTLLRTKGGYWGQGTQVTVSS”, the “polyreactivity (PSR sort gate)” value is given as “high polyreactivity”.

As for “QVQLVESGGGLVQAGGSLRLSCAASGGTLRRYAMGWYRQAPGKERELVAGITSGGSTDYADSVKGRFTISRDNAKNTVYLQMNSLKPEDTAVYYCAALVYRPTYGYIFDYWGQGTQVTVSS”, the “polyreactivity (PSR sort gate)” value is “high polyreactivity”.

Turning to “QVQLVESGGGLVQAGGSLRLSCAASGGTLRYYVMGWYRQAPGKDRELVAAISWAGDSTYYADSVKGRFTISRDNAKNTVYLQMNSLKPEDTAVYYCAATYYLTYYSGQANHGYDYWGQGTQVTVSS”, the “polyreactivity (PSR sort gate)” value is given as “low polyreactivity”.

As to “QVQLVESGGGLVQAGGSLRLSCAASGGTLYYNAMGWYRQAPGKERELVAAISGRGGRTYYADSVKGRFTISRDNAKNTVYLQMNSLKPEDTAVYYFARVTNDHYDYWGQGTQVTVSS”, the “polyreactivity (PSR sort gate)” value was “high polyreactivity”.

Regarding “QVQLVESGGGLVQAGGSLRLSCAASGGTSYAYTMGWYRQAPGKERELVAAISGSTGSTYYADSVKGRFTISRDNAKNTVYLQMNSLKPEDTAVYYCALLVGHNYWGQGTQVTVSS”, the “polyreactivity (PSR sort gate)” value is reported as “low polyreactivity”.

In the case of “QVQLVESGGGLVQAGGSLRLSCAASGGWYRQAPGKERELVAAISWRDSSTYYADSVKGRFTISRDNAKNTVYLQMNSLKPEDTAVYYCAVRAYPWPEYYYWGQGTQVTVSS”, the “polyreactivity (PSR sort gate)” value is on record as “low polyreactivity”.

Consider “QVQLVESGGGLVQAGGSLRLSCAASGHIFANYAMGWYRQAPGKERELVAAIRWSASRTYYADSVKGRFTISRDYAKNTVFLQLNSLKPEDTAVYYCAATIYTFWAYYYDYWGQGTQVTVSS”, for which the “polyreactivity (PSR sort gate)” value was “high polyreactivity”.

As for “QVQLVESGGGLVQAGGSLRLSCAASGHIFFYYTMGWYRQAPGKERELVAGITIGGSTNYADSVKGRFTISRDNAKNTVYLEMNSLKPEDTAVYYCNVVKYVFFYSYWEYYYWGQGTQVTVSS”, the “polyreactivity (PSR sort gate)” value was “low polyreactivity”.

Turning to “QVQLVESGGGLVQAGGSLRLSCAASGHIFFYYTMGWYSPAPGKERELVAGITIGGSTNYADSVKGRFTISRDNAKNTVYLQMNSLKPEDTAVYYCNVVKYVYIYSYWEYYYWGQGTQVNVSS”, the “polyreactivity (PSR sort gate)” value is given as “low polyreactivity”.

For “QVQLVESGGGLVQAGGSLRLSCAASGHIFGGNAMGWYRQAPGKEMELVATISSGGSTHYADSVKGRFTISRDNAKNTVYLQMHSLKPEDTAVYYCAARRSYRATAYKYDYWGQGTHVTVSS”, the “polyreactivity (PSR sort gate)” value is given as “low polyreactivity”.

“QVQLVESGGGLVQAGGSLRLSCAASGHIFSRYAMGWFRQAPGKERDLVATITNRGGSTYYADSVKGRFTISRDNAKNSVYLQMNSLKPEDTAVYYCARRTKSYVSHPLDYWGQGTQVTVSS”: the “polyreactivity (PSR sort gate)” value was “high polyreactivity”.

“QVQLVESGGGLVQAGGSLRLSCAASGHTFRKYAMGWYRQAPGKERELVASITWSDGITYYADSVKGRFTISRDNAKNTVYLQMNSLKPEDTAVYYCATDLVQSEYDYWGQGTQVTVSS”: the “polyreactivity (PSR sort gate)” value is reported as “low polyreactivity”.

Consider “QVQLVESGGGLVQAGGSLRLSCAASGHTFSSYAMGWYRQAPGKERELVAAISVSATRTYYADSVKGRFTISRDNAKNTVYLQMNSLKPEDTAVYYCAARPVQFTYGYWGQGTQVTVSS”, for which the “polyreactivity (PSR sort gate)” value is “high polyreactivity”.

Turning to “QVQLVESGGGLVQAGGSLRLSCAASGIFEWNAMGWYRQAPRTERELVAAISNSGGSTYYADSVKGRFTISRDNAKNTVYLQMNSLKPEDNAVYYCAARSKTPAWWYWNSYYIRDYWGQATQVTVSS”, the “polyreactivity (PSR sort gate)” value was “high polyreactivity”.

“QVQLVESGGGLVQAGGSLRLSCAASGIFGWYAMGWYRQARGKEREFVATINWSGGRTYYADSVKGRFTISRDNAKNTVYVQMNSLKPEDTAVYYCAPENYASQYDYWGQGTQVTVSS”: the “polyreactivity (PSR sort gate)” value was “low polyreactivity”.

For the sequence “QVQLVESGGGLVQAGGSLRLSCAASGIFPYNAMGWYRQAPGKERELVAAITWSDGSTYYADSVKGRFTISRDNAKNTVYLQMNSLKPEDTAVYYCNTYRNPAEDYWGQGTQVTVSS”, the “polyreactivity (PSR sort gate)” value is given as “low polyreactivity”.

As to “QVQLVESGGGLVQAGGSLRLSCAASGIFRLNAMGWYRQAPGKERELVAAISWSGGSTRYADSVKGRFTISRDNAKNTVYLQMNSLKPEDTAVYYCAKKLRGWHTIITDYDYWGLGTQVTVSS”, the “polyreactivity (PSR sort gate)” value is reported as “low polyreactivity”.

As for “QVQLVESGGGLVQAGGSLRLSCAASGIFTYNAMGWYRQAPGKERELVASITRGGSTNYADSVKGRFTISRDNAKNTVYLQMNSLKPEDTAVYYCAARVRVYSGWLYNYWGQGTQVTVSS”, the “polyreactivity (PSR sort gate)” value is “high polyreactivity”.

Regarding “QVQLVESGGGLVQAGGSLRLSCAASGIFVDNAMGWYRQAPGKERELVAAISGSGGSTFYADSVKGRFTISRDNAKNTVYLQLNSLKPEDTAVYYCNADVYPHPAFFVGHDYWGHGTQVTVSS”, the “polyreactivity (PSR sort gate)” value was “low polyreactivity”.

For “QVQLVESGGGLVQAGGSLRLSCAASGIFVGYTMGWYRQAPGKERELVAAIRWTDGSTYYADSVKGRFTISRDNAKNTVYLQMISLKPEDTAVYYCAADSHDPARYYYGDEFEDEYWGQGTQVTVSS”, the “polyreactivity (PSR sort gate)” value is given as “low polyreactivity”.

Source of the values: the nanobody polyreactivity screen of Harvey et al. (2022).
